Data: FireProtDB (doi:10.1016/0022-2836(82)90184-x)

Settings: Escherichia coli (strain K12), 25 °C, GdnHCl, CD, reversible: yes, whole UniProt chain shown

B1: Tryptophan synthase alpha chain wild type, P0A877 (protein)
chain: MERYESLFAQLKERKEGAFVPFVTLGDPGIEQSLKIIDTLIEAGADALELGIPFSDPLADGPTIQNATLRAFAAGVTPAQCFEMLALIRQKHPTIPIGLLMYANLVFNKGIDEFYAQCEKVGVDSVLVADVPVEESAPFRQAALRHNVAPIFICPPNADDDLLRQIASYGRGYTYLLSRAGVTGAENRAALPLNHLVAKLKEYNAAPPLQGFGISAPDQVKAAIDAGAAGAISGSAIVKIIEQHINEPEKMLAALKVFVQPMKAATRS
For B1, the unfolding free energy (pH 5.5, acetate 0.05 M) was 5.2 kcal/mol, the unfolding free energy (pH 7, Potassium phosphate 0.01 M) was 8.8 kcal/mol and the unfolding free energy (pH 9, Tris-HCl 0.025 M) was 4.9 kcal/mol.
